Test results: patent US20210369842A1 (Genmab, published 2021)
Where a chain is given by its changes, count along the chain named. Names may count otherwise.

B1: b12 (antibody, V domains shown)
VH: QVQLVQSGAEVKKPGASVKVSCQASGYRFSNFVIHWVRQAPGQRFEWMGWINPYNGNKEFSAKFQDRVTFTADTSANTAYMELRSLRSADTAVYYCARVGPYSWDDSPQDNYYMDVWGKGTTVIVSS
VL: EIVLTQSPGTLSLSPGERATFSCRSSHSIRSRRVAWYQHKPGQAPRLVIHGVSNRASGISDRFSGSGSGTDFTLTITRVEPEDFALYYCQVYGASSYTFGQGTKLERK
notes: also called monospecific, bivalent b12 antibody; gp120 specific antibody
B2: PD-L1-547-FEALxCD137-009-HC7LC2-FEAR (bispecific antibody, human IgG1, kappa, lambda)
heavy 1: EVQLLEPGGGLVQPGGSLRLSCEASGSTFSTYAMSWVRQAPGKGLEWVSGFSGSGGFTFYADSVRGRFTISRDSSKNTLFLQMSSLRAEDTAVYYCAIPARGYNYGSFQHWGQGTLVTVSSASTKGPSVFPLAPSSKSTSGGTAALGCLVKDYFPEPVTVSWNSGALTSGVHTFPAVLQSSGLYSLSSVVTVPSSSLGTQTYICNVNHKPSNTKVDKRVEPKSCDKTHTCPPCPAPEFEGGPSVFLFPPKPKDTLMISRTPEVTCVVVAVSHEDPEVKFNWYVDGVEVHNAKTKPREEQYNSTYRVVSVLTVLHQDWLNGKEYKCKVSNKALPAPIEKTISKAKGQPREPQVYTLPPSREEMTKNQVSLTCLVKGFYPSDIAVEWESNGQPENNYKTTPPVLDSDGSFLLYSKLTVDKSRWQQGNVFSCSVMHEALHNHYTQKSLSLSPGK
light 1: SYVLTQPPSVSVAPGQTARITCGGNNIGSKSVHWYQQKPGQAPVLVVYDDNDRPSGLPERFSGSNSGNTATLTISRVEAGDEADYYCQVWDSSSDHVVFGGGTKLTVLGQPKAAPSVTLFPPSSEELQANKATLVCLISDFYPGAVTVAWKADSSPVKAGVETTTPSKQSNNKYAASSYLSLTPEQWKSHRSYSCQVTHEGSTVEKTVAPTECS
heavy 2: EVQLVESGGGLVQPGRSLRLSCTASGFSLNDYWMSWVRQAPGKGLEWVGYIDVGGSLYYAASVKGRFTISRDDSKSIAYLQMNSLKTEDTAVYYCARGGLTYGFDLWGQGTLVTVSSASTKGPSVFPLAPSSKSTSGGTAALGCLVKDYFPEPVTVSWNSGALTSGVHTFPAVLQSSGLYSLSSVVTVPSSSLGTQTYICNVNHKPSNTKVDKRVEPKSCDKTHTCPPCPAPEFEGGPSVFLFPPKPKDTLMISRTPEVTCVVVAVSHEDPEVKFNWYVDGVEVHNAKTKPREEQYNSTYRVVSVLTVLHQDWLNGKEYKCKVSNKALPAPIEKTISKAKGQPREPQVYTLPPSREEMTKNQVSLTCLVKGFYPSDIAVEWESNGQPENNYKTTPPVLDSDGSFFLYSRLTVDKSRWQQGNVFSCSVMHEALHNHYTQKSLSLSPGK
light 2: DIVMTQSPSSLSASVGDRVTITCQASEDISSYLAWYQQKPGKAPKRLIYGASDLASGVPSRFSASGSGTDYTFTISSLQPEDIATYYCHYYATISGLGVAFGGGTKVEIKRTVAAPSVFIFPPSDEQLKSGTASVVCLLNNFYPREAKVQWKVDNALQSGNSQESVTEQDSKDSTYSLSSTLTLSKADYEKHKVYACEVTHQGLSSPVTKSFNRGEC
B3: b12-FEALxPD-L1-547-FEAR (bispecific antibody)
heavy 1: QVQLVQSGAEVKKPGASVKVSCQASGYRFSNFVIHWVRQAPGQRFEWMGWINPYNGNKEFSAKFQDRVTFTADTSANTAYMELRSLRSADTAVYYCARVGPYSWDDSPQDNYYMDVWGKGTTVIVSSASTKGPSVFPLAPSSKSTSGGTAALGCLVKDYFPEPVTVSWNSGALTSGVHTFPAVLQSSGLYSLSSVVTVPSSSLGTQTYICNVNHKPSNTKVDKRVEPKSCDKTHTCPPCPAPEFEGGPSVFLFPPKPKDTLMISRTPEVTCVVVAVSHEDPEVKFNWYVDGVEVHNAKTKPREEQYNSTYRVVSVLTVLHQDWLNGKEYKCKVSNKALPAPIEKTISKAKGQPREPQVYTLPPSREEMTKNQVSLTCLVKGFYPSDIAVEWESNGQPENNYKTTPPVLDSDGSFLLYSKLTVDKSRWQQGNVFSCSVMHEALHNHYTQKSLSLSPGK
light 1: EIVLTQSPGTLSLSPGERATFSCRSSHSIRSRRVAWYQHKPGQAPRLVIHGVSNRASGISDRFSGSGSGTDFTLTITRVEPEDFALYYCQVYGASSYTFGQGTKLERKRTVAAPSVFIFPPSDEQLKSGTASVVCLLNNFYPREAKVQWKVDNALQSGNSQESVTEQDSKDSTYSLSSTLTLSKADYEKHKVYACEVTHQGLSSPVTKSFNRGEC
heavy 2: B2 heavy 1 with L409F, K413R
light 2: B2 light 1
notes: also called monovalent PD-L1 antibody; monovalent PD-L1-control antibody
B4: PD-L1-547-FEAR (antibody, human IgG1, lambda, V domains shown)
VH: EVQLLEPGGGLVQPGGSLRLSCEASGSTFSTYAMSWVRQAPGKGLEWVSGFSGSGGFTFYADSVRGRFTISRDSSKNTLFLQMSSLRAEDTAVYYCAIPARGYNYGSFQHWGQGTLVTVSS
VL: SYVLTQPPSVSVAPGQTARITCGGNNIGSKSVHWYQQKPGQAPVLVVYDDNDRPSGLPERFSGSNSGNTATLTISRVEAGDEADYYCQVWDSSSDHVVFGGGTKLTVLG
notes: Human IgG1 lambda with L234F, L235E, D265A and K409R (FEAR)

Columns and labels:
Human PD-L1 [1] = molecular target: T1, Human PD-L1 (human, UniProt Q9NZQ7 19-290); assay: flow cytometry on MDA-MB-231 cells, PE-conjugated goat anti-human IgG F(ab')2 as secondary
T1 construct: Amino acids 1-18 are stated as the predicted signal peptide; also called CD274; B7H1
T1 sequence (Q9NZQ7 19-290): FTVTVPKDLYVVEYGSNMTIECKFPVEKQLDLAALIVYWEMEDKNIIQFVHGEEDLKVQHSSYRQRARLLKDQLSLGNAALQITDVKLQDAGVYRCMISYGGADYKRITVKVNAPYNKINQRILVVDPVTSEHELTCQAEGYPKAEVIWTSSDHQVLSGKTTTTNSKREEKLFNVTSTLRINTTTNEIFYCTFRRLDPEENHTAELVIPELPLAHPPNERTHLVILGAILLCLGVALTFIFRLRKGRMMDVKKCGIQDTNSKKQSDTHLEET
Protocol: (§1) Cells (3-5×10⁴ cells/well) were incubated in polystyrene 96-well round-bottom plates (Greiner bio-one, cat. no. 650101) with serial dilutions of antibodies (range 0.0001 to 10 μg/mL in 5-fold dilution steps) in 50 μL PBS/0.1% BSA/0.02% azide (FACS buffer) at 4° C. for 30 min. After washing twice in FACS buffer, cells were incubated with secondary antibody at 4° C. for 30 min. As a secondary antibody, R-Phycoerythrin (PE)-conjugated goat-anti-human IgG F(ab′)₂ (Cat. no. 109-116-098, Jackson ImmunoResearch Laboratories, Inc., West Grove, Pa.) diluted 1:500 in 50 μL FACS buffer, was used for all experiments. Next, cells were washed twice in FACS buffer, re-suspended in 20 μL FACS buffer and analyzed on an iQue screener (Intellicyt Corporation, USA). Binding curves were analyzed using non-linear regression (sigmoidal dose-response with variable slope) using GraphPad Prism V75.04 software (GraphPad Software, San Diego, Calif., USA).

Human CD137 = Human CD137 (human, UniProt Q07011 24-255); assay: cell-based or functional assay
Sequence of Human CD137 (Q07011 24-255): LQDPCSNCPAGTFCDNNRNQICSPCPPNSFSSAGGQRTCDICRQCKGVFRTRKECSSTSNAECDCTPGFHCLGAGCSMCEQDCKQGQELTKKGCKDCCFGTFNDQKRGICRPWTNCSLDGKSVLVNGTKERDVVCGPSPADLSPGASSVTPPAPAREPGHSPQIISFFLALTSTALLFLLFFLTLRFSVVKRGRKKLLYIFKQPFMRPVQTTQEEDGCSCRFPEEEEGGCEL

Human PD-L1 [2] = molecular target: T1, Human PD-L1; assay: cell-based or functional assay
Human PD-L1 [3] = molecular target: T1, Human PD-L1; assay: flow cytometry on PC-3 cells, PE-conjugated goat anti-human IgG F(ab')2 as secondary
Protocol: as §1

Human PD-L1 [4] = molecular target: T1, Human PD-L1; assay: flow cytometry on SK-MES-1 cells, PE-conjugated goat anti-human IgG F(ab')2 as secondary
Protocol: as §1

| Binder | binding result (Human PD-L1 [1]) | EC50 value, CD8+ T-cell expansion (donor 1, 0.03 µg/ml anti-CD3) (Human CD137) [µg/mL] | EC50 value, CD8+ T-cell expansion (donor 2, 0.09 µg/ml anti-CD3) (Human CD137) [µg/mL] | EC50 (read off the curve); fold induction in the PD-1/PD-L1 inhibition bioassay, blocked partner human PD-1 (Human PD-L1 [2]) [µg/mL] | EC50 (read off the curve) (Human PD-L1 [3]) [µg/mL] | EC50 (read off the curve) (Human PD-L1 [1]) [µg/mL] | EC50 (read off the curve) (Human PD-L1 [4]) [µg/mL] |
| --- | --- | --- | --- | --- | --- | --- | --- |
| B1 | no binding (tested: 10 µg/mL) |  |  |  |  |  |  |
| B2 |  | 0.0122 | 0.00689 |  |  |  |  |
| B3 |  |  |  | ~0.1 | ~0.05 | ~0.06 | ~0.2 |
| B4 |  |  |  |  | ~0.04 | ~0.05 | ~0.1 |
